Laboratory results taken from PMC3268394 (The Journal of Biological Chemistry, 2011).
One block for each binder: values may come before it.

Tests used:
ubiquitin = ubiquitin (UniProt P0CG48 1-76); experiment: pull-down
[1] = biological target: T1, HDAC6 ZnF-UBP domain (1109–1215), His tag cleaved (UniProt Q9UBN7 1109-1215); experiment: crystal structure
T1 sequence: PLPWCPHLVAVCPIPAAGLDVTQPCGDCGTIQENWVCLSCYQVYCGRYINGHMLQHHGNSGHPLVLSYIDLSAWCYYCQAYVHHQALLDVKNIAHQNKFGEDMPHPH

binding result (ubiquitin): binds
B1: His-tagged UBP domain of USP5 (171–290) (domain or fragment)
chain: GEVRQVSKHAFSLKQLDNPARIPPCGWKCSKCDMRENLWLNLTDGSILCGRRYFDGSGGNNHAVEHYRETGYPLAVKLGTITPDGADVYSYDEDDMVLDPSLAEHLSHFGIDMLKMQKTD

binding result [1]: binds
B2: ubiquitin C-terminal pentapeptide RLRGG (peptide)
peptide: RLRGG
